Here are results for one protein from article PMC6475665, “Alone at last! – Heterologous expression of a single gene is sufficient for establishing the five-step Weimberg pathway in Corynebacterium glutamicum” (Metabolic Engineering Communications, 2019).

Substrate in the data set: O=CCCC(=O)C(=O)O
The data set can be described thus: purified protein. The data set is classed as biochemical, Corynebacterium glutamicum. The settings on record: 5 mM NAD+, 100 mM potassium phosphate, pH 7.5, 30 °C.

B1: KsaD (Cg0535) (Corynebacterium glutamicum ATCC 13032) (protein)
chain: MITATALHGCSLIDGEWVAGKNGEITGFDPRTNASLNPSYSLANSAQLRAATTSAKRAFESYRLTTPEVRADFLDSIADNIDALSGEIVQRASLETGLGTTRLTGEVARTSNQLRLFAETVRSGQFHRVRIERGPRIDLRQRQVPLGPVAVFGASNFPVAFSTAGGDTASALAAGCPVVFKAHNAHPGTAELVGQAVRGAVEKHEFDAGVFNLVYGRGVEIGQELAADPNITAIGFTGSRQGGLALSQTAFSRPVPVPVFAEMSATNPVFVFPGALADLDASSSLAEAFTASVTGSSGQLCTKPGLVFIPRGVVGDAFVALVAAKFKETTGQTMLTQGIAQAWQRGVDNLAAQPSVKILAQGTPGDGENAPGPVVFESDVQALLNNVVLQEEIFGAASLVVRYDSPDQLHQVANSLEGQLTATIHASQDDFQEVSKLIPLLEDLAGRVLYGGWPTGVEVGHTVIHGGPYPATSNAQSTSVGTLAIERFMRPVSYQTFPAELLPDPVSEANKWAVPREIDR
notes: N-terminus MITATA after tag (from primer)
Consider B1, for which the Km turned out to be 870 µM.
